# Residue numbers refer to the chain shown, from its start.
# T1: siglec 4 expressed on HEK293 cells (UniProt P20916 20-626, limits assumed)
# T1 construct: whole, on cells; also called Siglec-6 family member
# T1 sequence (looked up): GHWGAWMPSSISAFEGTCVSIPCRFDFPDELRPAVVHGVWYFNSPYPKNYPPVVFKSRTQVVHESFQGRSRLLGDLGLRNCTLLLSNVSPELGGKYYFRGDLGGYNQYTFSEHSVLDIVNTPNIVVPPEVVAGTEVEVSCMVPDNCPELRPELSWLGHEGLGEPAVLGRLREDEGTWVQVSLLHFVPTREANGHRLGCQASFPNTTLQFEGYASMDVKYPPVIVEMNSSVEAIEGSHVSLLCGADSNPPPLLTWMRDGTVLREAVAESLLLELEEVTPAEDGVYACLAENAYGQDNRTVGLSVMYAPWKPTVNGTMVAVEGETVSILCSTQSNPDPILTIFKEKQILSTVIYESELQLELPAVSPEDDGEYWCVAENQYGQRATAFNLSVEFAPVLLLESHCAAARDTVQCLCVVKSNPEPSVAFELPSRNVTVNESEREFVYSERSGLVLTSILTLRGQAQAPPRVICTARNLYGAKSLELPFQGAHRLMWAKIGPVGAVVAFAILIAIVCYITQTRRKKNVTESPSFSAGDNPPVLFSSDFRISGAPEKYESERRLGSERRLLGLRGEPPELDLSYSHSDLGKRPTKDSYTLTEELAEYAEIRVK
# T2: siglec 14 expressed on HEK293 cells (UniProt Q08ET2 17-396, limits assumed)
# T2 construct: whole, on cells; also called Siglec-6 family member
# T2 sequence (looked up): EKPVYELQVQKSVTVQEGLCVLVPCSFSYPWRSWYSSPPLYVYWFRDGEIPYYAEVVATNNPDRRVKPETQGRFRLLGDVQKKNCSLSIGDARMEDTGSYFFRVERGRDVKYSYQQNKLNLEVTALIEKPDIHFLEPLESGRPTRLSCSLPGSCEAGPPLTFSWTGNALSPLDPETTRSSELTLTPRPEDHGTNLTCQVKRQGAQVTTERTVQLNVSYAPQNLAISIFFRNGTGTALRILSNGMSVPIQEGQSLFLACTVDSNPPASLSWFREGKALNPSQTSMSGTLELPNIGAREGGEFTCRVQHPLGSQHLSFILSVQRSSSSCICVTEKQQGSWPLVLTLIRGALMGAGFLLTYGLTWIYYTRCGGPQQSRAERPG
# B1: hRND-2 (antibody, human IgG1, kappa, V domains shown)
# VH: QVQLVQSGAEVKKPGASVKVSCKASGYAFTSYWMHWVRQAPGQRLEWMGEIYPTNGGTTYAQKFQGRVTMTVDKSTSTAYMELSRLRSDDTAVYYCTIEDFYAMDYWGQGTTVTVSS
# VL: DIVMTQTPLSLSVTPGQPASISCKSSQSLLDSDGKTSLNWLLQKPGQSPQRLIYLVSKLDSGVPDRFSGSGSGTDFTLKISRVEAEDVGVYYCWQGTHFPYTFGQGTKLEIKR
# notes: also called humanized RND-2; hRND-H2 / hRND-L3; copies: 2 + 2
# B2: hRND-3 (antibody, human IgG1, kappa, V domains shown)
# VH: B1 VH with V20L, M48I, V68A, M70L
# VL: B1 VL
# notes: also called humanized RND-3; hRND-H3 / hRND-L3; copies: 2 + 2
# B3: hRND-4 (antibody, human IgG1, kappa, V domains shown)
# VH: B1 VH with A61N, Q62E, Q65K, G66R
# VL: B1 VL
# notes: also called humanized RND-4; hRND-H2b / hRND-L3; copies: 2 + 2
# B4: hRND-5 (antibody, human IgG1, kappa, V domains shown)
# VH: B1 VH with V20L, M48I, A61N, Q62E, Q65K, G66R, V68A, M70L
# VL: B1 VL
# notes: also called humanized RND-5; hRND-H3b / hRND-L3; copies: 2 + 2
# Target: T3, siglec 8 expressed on HEK293 cells (UniProt Q9NYZ4 17-499, limits assumed)
# T3 construct: whole, on cells; also called Siglec-6 family member
# Test: flow cytometry on HEK293 cells expressing the target
# Procedure: (§1) Cultured HEK293 cells expressing human siglec-6, cynomolgus siglec-6, or siglec 6 family members were resuspended in FACS Blocking Buffer (PBS+10% normal human serum) for 30 minutes. Following washing, cells were incubated with siglec-6 antibodies in FACS Buffer (PBS+0.5% bovine serum albumin+0.09% sodium azide) and incubated at 4° C. for 30 minutes, washed and incubated with PE-labeled anti-human secondary antibody. Cells were incubated at 4° C. for 30 minutes in the dark. Following washing, cytofluorimetric analysis was conducted using a BD FACS Symphony A3 (BD Biosciences). Cells were sorted by scatter properties and separated for single cell analysis using side scatter width vs side scatter area. Antibody binding to cells was quantitated by measuring fluorescent emissions of excitation wavelength of 561 nm using a 586/15 nm filter. Data analysis was performed using FlowJo Software.
# T3 sequence (Q9NYZ4 17-499 limits assumed): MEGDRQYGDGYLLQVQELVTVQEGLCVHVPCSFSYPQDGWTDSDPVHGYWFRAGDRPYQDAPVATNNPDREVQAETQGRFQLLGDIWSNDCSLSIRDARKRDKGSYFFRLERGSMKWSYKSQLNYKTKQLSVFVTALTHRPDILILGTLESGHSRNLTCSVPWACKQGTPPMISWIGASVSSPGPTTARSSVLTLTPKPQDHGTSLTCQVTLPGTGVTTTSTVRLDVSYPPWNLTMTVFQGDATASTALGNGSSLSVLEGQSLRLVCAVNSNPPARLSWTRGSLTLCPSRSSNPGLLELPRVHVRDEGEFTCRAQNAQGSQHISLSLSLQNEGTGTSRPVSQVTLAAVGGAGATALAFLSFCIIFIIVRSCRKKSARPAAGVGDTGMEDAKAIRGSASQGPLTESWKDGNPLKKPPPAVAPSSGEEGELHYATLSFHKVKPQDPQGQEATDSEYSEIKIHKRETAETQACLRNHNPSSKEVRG
row,binding result,Binder
1,no binding,B1
2,no binding,B2
3,no binding,B3
4,no binding,B4

# Target: T1, siglec 4 expressed on HEK293 cells
# Test: as above
# Procedure: as §1
row,binding result,Binder
1,no binding,B1
2,no binding,B2
3,no binding,B3
4,no binding,B4

# Target: T4, siglec 3 expressed on HEK293 cells (UniProt P20138 18-364, limits assumed)
# T4 construct: whole, on cells; also called Siglec-6 family member
# Test: as above
# Procedure: as §1
# T4 sequence (P20138 18-364 limits assumed): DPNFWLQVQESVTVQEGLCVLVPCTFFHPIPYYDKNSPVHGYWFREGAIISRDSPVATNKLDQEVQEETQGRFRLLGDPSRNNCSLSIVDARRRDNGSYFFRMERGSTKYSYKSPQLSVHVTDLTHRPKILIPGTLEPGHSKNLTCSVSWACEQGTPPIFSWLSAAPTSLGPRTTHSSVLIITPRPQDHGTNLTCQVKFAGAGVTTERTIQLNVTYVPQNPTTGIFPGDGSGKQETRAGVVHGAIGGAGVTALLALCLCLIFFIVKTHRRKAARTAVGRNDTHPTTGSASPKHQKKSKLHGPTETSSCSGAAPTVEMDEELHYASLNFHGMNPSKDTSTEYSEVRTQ
row,binding result,Binder
1,no binding,B1
2,no binding,B2
3,no binding,B3
4,no binding,B4

# Target: T5, siglec 1 expressed on HEK293 cells (UniProt Q9BZZ2 20-1709, limits assumed)
# T5 construct: whole, on cells; also called Siglec-6 family member
# Test: as above
# Procedure: as §1
# T5 sequence (Q9BZZ2 20-1709 limits assumed): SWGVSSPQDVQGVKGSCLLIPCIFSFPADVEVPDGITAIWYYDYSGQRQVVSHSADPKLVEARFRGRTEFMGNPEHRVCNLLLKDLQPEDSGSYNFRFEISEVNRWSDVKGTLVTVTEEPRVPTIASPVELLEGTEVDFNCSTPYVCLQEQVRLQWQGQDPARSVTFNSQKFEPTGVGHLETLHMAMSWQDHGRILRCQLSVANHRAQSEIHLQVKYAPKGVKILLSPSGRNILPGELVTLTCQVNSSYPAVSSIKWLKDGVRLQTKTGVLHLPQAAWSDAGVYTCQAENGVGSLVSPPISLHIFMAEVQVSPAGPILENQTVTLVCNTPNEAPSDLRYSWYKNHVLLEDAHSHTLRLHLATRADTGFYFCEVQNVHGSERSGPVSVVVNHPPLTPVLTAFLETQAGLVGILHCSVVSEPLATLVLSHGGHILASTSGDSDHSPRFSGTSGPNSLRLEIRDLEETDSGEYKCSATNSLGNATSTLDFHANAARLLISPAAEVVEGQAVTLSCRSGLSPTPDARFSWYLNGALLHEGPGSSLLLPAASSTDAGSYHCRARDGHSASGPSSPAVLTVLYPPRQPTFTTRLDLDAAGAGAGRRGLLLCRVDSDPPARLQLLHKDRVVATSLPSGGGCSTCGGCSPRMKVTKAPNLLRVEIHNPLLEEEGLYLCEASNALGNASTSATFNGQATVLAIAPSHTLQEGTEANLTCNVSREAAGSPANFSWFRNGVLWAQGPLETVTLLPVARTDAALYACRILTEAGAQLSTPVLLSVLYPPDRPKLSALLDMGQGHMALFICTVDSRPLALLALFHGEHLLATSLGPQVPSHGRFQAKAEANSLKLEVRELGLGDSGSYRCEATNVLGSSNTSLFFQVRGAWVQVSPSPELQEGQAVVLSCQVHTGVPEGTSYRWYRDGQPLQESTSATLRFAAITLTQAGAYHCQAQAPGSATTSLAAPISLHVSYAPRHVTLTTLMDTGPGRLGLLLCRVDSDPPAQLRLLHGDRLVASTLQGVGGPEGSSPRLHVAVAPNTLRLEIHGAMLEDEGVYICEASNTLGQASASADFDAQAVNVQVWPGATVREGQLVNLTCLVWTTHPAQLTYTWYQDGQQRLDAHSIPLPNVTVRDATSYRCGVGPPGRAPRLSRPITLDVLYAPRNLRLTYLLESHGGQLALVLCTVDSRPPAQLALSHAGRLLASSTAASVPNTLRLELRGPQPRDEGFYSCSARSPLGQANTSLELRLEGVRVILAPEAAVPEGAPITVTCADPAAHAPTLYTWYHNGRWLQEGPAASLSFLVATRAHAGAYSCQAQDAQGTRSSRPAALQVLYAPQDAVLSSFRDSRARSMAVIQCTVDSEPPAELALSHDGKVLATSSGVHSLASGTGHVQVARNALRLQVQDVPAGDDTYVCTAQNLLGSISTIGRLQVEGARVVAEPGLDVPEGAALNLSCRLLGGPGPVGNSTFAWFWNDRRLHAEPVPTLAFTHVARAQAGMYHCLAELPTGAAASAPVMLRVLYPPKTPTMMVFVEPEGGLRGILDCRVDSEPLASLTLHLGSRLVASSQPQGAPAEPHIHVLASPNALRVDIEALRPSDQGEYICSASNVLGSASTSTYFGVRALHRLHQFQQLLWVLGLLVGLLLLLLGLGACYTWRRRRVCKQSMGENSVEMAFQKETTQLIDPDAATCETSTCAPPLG
row,binding result,Binder
1,no binding,B1
2,no binding,B2
3,no binding,B3
4,no binding,B4

# Target: T6, siglec 9 expressed on HEK293 cells (UniProt Q9Y336 18-463, limits assumed)
# T6 construct: whole, on cells; also called Siglec-6 family member
# Test: as above
# Procedure: as §1
# T6 sequence (Q9Y336 18-463 limits assumed): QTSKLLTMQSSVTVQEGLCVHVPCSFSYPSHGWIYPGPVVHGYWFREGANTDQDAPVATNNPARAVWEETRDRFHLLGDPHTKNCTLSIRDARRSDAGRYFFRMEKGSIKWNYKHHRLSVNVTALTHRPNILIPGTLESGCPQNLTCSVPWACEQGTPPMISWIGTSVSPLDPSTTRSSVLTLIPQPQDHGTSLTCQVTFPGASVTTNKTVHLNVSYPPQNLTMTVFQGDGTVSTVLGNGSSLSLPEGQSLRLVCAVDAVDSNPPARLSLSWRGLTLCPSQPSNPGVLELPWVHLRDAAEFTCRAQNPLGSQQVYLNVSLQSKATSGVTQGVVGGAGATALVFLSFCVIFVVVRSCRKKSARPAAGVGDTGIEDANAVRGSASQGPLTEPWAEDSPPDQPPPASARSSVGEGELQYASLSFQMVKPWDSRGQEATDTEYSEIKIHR
row,binding result,Binder
1,no binding,B1
2,no binding,B2
3,no binding,B3
4,no binding,B4

# Target: T7, siglec 7 expressed on HEK293 cells (UniProt Q9Y286 19-467, limits assumed)
# T7 construct: whole, on cells; also called Siglec-6 family member
# Test: as above
# Procedure: as §1
# T7 sequence (Q9Y286 19-467 limits assumed): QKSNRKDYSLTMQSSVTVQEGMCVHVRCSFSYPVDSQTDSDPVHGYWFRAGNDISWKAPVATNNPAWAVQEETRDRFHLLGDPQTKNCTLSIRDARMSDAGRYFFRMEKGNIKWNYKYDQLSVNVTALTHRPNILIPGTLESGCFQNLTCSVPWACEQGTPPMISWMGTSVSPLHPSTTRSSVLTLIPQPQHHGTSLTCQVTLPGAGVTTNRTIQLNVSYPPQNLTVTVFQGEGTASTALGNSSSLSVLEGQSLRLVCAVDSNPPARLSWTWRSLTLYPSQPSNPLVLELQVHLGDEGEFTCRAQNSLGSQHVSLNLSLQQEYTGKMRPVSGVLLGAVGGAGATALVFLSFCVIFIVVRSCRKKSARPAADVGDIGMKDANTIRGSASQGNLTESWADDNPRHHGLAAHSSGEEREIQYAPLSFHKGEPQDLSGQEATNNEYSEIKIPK
row,binding result,Binder
1,no binding,B1
2,no binding,B2
3,no binding,B3
4,no binding,B4

# Target: T2, siglec 14 expressed on HEK293 cells
# Test: as above
# Procedure: as §1
row,binding result,Binder
1,no binding,B1
2,no binding,B2
3,no binding,B3
4,no binding,B4

# Target: T8, Human siglec-6 (BLI analyte) (human, UniProt O43699 27-347, limits assumed)
# T8 construct: also called human siglect-6
# Test: BLI (Octet), antibody on capture sensor
# Procedure: Further, binding affinities of siglec-6 antibodies to human siglec-6 were measured by […] using an Octect instrument. Briefly, capture sensors were loaded with test antibodies with 3-fold dilutions. The association and dissociation rates to were determined and used to calculate the equilibrium dissociation constant KD (Table 6).
# T8 sequence (O43699 27-347 limits assumed): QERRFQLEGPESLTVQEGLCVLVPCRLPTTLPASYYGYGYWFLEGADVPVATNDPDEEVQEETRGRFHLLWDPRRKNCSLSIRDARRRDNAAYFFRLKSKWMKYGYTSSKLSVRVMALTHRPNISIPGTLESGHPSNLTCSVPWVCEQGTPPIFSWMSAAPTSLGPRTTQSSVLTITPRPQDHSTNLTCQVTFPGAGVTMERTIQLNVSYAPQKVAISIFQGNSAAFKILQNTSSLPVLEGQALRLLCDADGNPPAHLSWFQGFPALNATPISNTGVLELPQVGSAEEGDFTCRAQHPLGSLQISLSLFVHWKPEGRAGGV
row,Kd [nM],Binder
1,0.17,B1
2,0.137,B2
3,0.315,B3
4,0.166,B4

# Target: T9, Human siglec-6 expressed on the cell surface (HMC1.2 cells; HEK293 cells expressing human siglec-6) (human, UniProt O43699 27-453)
# T9 construct: whole, on cells; also called cell surface expressed siglec-6; CD327
# Test: flow cytometry on HMC1.2 cells
# Procedure: as §1, with “Target binding of siglec-6 antibodies to siglec-6-expressing cells was assessed by flow cytometry. Cultured” for “Cultured”, “HMC1.2” for “HEK293”, “cells” for “cells expressing human siglec-6, cynomolgus siglec-6, or siglec 6 family members”, “anti-human or anti-mouse” for “anti-human”, “antibodies.” for “antibody.”, “All tested siglec-6 antibodies were capable of binding to cells expressing siglec-6.” for “Data analysis was performed using FlowJo Software.”
# T9 sequence (O43699 27-453): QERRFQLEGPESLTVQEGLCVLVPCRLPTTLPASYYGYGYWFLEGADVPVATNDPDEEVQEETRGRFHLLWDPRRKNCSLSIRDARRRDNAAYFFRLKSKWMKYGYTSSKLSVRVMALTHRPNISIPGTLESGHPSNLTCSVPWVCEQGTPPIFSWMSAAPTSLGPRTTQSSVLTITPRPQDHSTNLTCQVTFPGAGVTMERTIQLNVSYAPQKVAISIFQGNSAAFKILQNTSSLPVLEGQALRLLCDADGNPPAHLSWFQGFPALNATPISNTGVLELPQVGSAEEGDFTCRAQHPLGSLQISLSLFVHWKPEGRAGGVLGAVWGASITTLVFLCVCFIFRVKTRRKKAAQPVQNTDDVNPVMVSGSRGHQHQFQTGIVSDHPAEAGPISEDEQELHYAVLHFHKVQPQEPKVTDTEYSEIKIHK
MFI [MFI],Percent Positive for Siglec-6 on HMC1.2 cells [%],Binder
3130,99.9,B1
3700,99.9,B2
3200,100,B3
1940,99.9,B4
